# Source: patent US5039791A, “Peptide fragments of tissue plasminogen activator” (Monsanto Company, priority 1989, dated 1991)
# Where no end group is shown, it is not given here.
# Target: T1, PAI-1 (Homo sapiens, UniProt P05121)
# T1 construct: purchased American Diagnostica, Inc
# Test: PAI-1 inhibition studies: protection of tPA from inactivation by PAI-1, residual tPA enzymatic activity by indirect amidolytic assay
# Assay type: biochemical
# Conditions: 1.5 μg/ml PAI-1, 50 ng/ml tPA; for maintenance of tPA activity in the presence of PAI-1 (FIG. 1): 100 μg/ml peptide, one hour at 37° C.; for effect of peptide concentration on the maintenance of tPA activity in the presence of PAI-1 (FIG. 2): several peptide concentrations (30-120 μg/ml)
# Protocol: In each case, peptide and PAI-1 were first mixed, followed by the addition of tPA. Final concentrations were: 100 μg/ml peptide, 1.5 μg/ml PAI-1 and 50 ng/ml tPA in phospate buffered saline containing 0.01% sodium azide and 0.01% Tween 80%. After incubation for one hour at 37° C., samples were examined for remaining tPA enzymatic activity. The error bars represent the range of duplicate measurements of the tPA enzymatic activity in μAU/min/min.
# Results are expressed as the percentage of tPA enzymatic activity remaining after incubation with tPA, PAI-1 and peptide relative to that seen with tPA alone.
# An indirect amidolytic assay for tPA activity was performed by a conventional method as described by Ranby and Wallen, Prog. Fibrinolytics 5, 233-235 (1981) and Ranby, Biochim. Biophys. Acta 740, 461-469 (1982) but with the following modifications. The assay mixture contained 50 μg/ml human glu-plasminogen, 1 mM plasmin substrate S-2251, 130 μg/ml fibrinogen fragment stimulator, and 0 to 20 ng/ml tPA sample in phosphate-buffered saline containing 0.01% sodium azide and 0.01% Tween 80 (PBSAT) in a final volume of 100 μl. The assay was performed in a 96-well microtitration plate at room temperature. Reaction mixtures were overlaid with 50 μl mineral oil to prevent evaporation. Periodic readings were taken at 405 nm and referenced at 650 nm using a Molecular Devices Vmax plate reader. The first derivative of absorbance with respect to time was calculated and the slope of a plot of dA/dt vs time was proportional to tPA activity. Results were expressed in absorbance units (μ AU/min^2) or as a percentage of control.
# The effect of peptides on the inactivation of tPA by PAI-1 was measured by incubating 1.5 μg/ml PAI-1, 30-120 μg/ml peptide and 50 ng/ml tPA in PBSAT. PAI-1 and peptide were first mixed, followed by the addition of tPA. After one hour at 37° C., residual tPA enzymatic activity was measured either immediately or after the samples had been frozen and stored.
# tPA was incubated with increasing concentrations of PAI-1 for one hour at 37° C. and the incubate was then assayed for residual tPA enzymatic activity.
# T1 sequence (P05121 24-402): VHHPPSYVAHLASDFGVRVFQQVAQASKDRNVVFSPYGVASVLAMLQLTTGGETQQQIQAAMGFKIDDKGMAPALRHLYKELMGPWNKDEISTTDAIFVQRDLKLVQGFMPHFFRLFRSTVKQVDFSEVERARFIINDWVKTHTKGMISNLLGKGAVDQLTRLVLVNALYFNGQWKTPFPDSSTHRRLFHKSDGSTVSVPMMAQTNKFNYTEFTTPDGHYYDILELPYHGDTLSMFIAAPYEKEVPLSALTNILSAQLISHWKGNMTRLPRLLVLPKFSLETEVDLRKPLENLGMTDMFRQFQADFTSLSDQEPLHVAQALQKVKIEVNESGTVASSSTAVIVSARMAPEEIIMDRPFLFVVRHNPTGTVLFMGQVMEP
maintenance of tPA activity in the presence of PAI-1 (FIG. 1),effect of peptide concentration on the maintenance of tPA activity in the presence of PAI-1 (FIG. 2),Substance
no effect,no effect,"LGKHNYCRNPDGDAKPWCHVLKNRR-amide (LGKHNYCRNPDGDAKPWCHVLKNRR-NH2; cysteine pairing not given here) [Peptide 166, 25 amino acid synthetic peptide amide fragment of native human tPA]"
active but with a lesser effect,"steady, progressive increase in activity","NPDRDSKPWCYVFKAGKYSSEFCST-amide (NPDRDSKPWCYVFKAGKYSSEFCST-NH2; cysteine pairing not given here) [Peptide 158, 25 amino acid synthetic peptide amide fragment of native human tPA]"

Substance,maintenance of tPA activity in the presence of PAI-1 (FIG. 1),effect of peptide concentration on the maintenance of tPA activity in the presence of PAI-1 (FIG. 2)
"VPVKSCSEPRCFNGGTCQQALYFSD-amide (VPVKSCSEPRCFNGGTCQQALYFSD-NH2; cysteine pairing not given here) [Peptide 148, 25 amino acid synthetic peptide amide fragment of native human tPA]",especially effective at maintaining tPA activity,rose dramatically and plateaued
